± gives the half width of the 95% confidence interval.
Assays:
[1] = folding stability dG unfold from trypsin proteolysis; higher = more stable
In short: (§1)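 Designed mini-proteins (under 80 residues, no cysteine) in a PA-tagged cDNA display construct were digested with trypsin and chymotrypsin. Each protease was used at 11 concentrations (threefold dilutions) plus a no-protease condition, followed by sequencing. K50 was inferred by Bayesian fitting of sequencing counts, and unfolding free energy was derived against a sequence-predicted unfolded-state K50 and a shared folded-state K50, per protease or combined. Only designs with AlphaFold2 dimer inter-PAE above 15 were kept.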

[2] = folding stability dG unfold from chymotrypsin proteolysis; higher = more stable
In short: as §1

[3] = folding stability dG unfold (combined trypsin and chymotrypsin); higher = more stable
In short: as §1

Q: For “SAGGSAGGSAGPKIKIKKFPDFLIAEIEFPDGKKATAIFDPKTGKIIVFVGDKPIEIDIGSAGGSAGGSAGG [r11_846_TrMRF]”, which “folding stability dG unfold” value [1] is on record?
A: 2.16 ± 0.059 kcal/mol

Q: What about the “folding stability dG unfold” value [2] of the same sequence?
A: 3.49 ± 0.09 kcal/mol

Q: And the “folding stability dG unfold” value [3]?
A: 3.1 ± 0.07 kcal/mol

Q: What does the source list for “SAGGSAGGSAGGSAKITIEYNPETNTLTVTITLENGEKVEITVPPNATLEEIEELAKKASAGGSAGGSAGGS [r4_205_TrROS_Hall]”?
A: folding stability dG unfold [1]: 3.41 ± 0.28 kcal/mol; folding stability dG unfold [2]: 2.49 ± 0.11 kcal/mol; folding stability dG unfold [3]: 3.04 ± 0.3 kcal/mol

Q: Which “folding stability dG unfold” value [1] does the source give for “SAGGSAGGSAGGDAPNTTVTVTLKAEVYYDPSTGALVVKVTAYFPATNTTVTLEFTFPLSAGGSAGGSAGGS [r10_187_TrMRF]” here?
A: 3.66 ± 0.24 kcal/mol

Q: What about the “folding stability dG unfold” value [2] of the same sequence?
A: 4.66 ± 0.25 kcal/mol

Q: And the “folding stability dG unfold” value [3]?
A: 4.76 ± 0.72 kcal/mol

Q: Which “folding stability dG unfold” value [1] does the source give for “SAGGSAKPEPIKIEIGPGGNRFKATFPNGDEADVDVVKDGDKTYLLITVTSPDGKPRPFKIPLEKLSAGGSA [r15_941_TrMRF]” here?
A: 1.76 ± 0.042 kcal/mol

Q: And the “folding stability dG unfold” value [2]?
A: 2.24 ± 0.023 kcal/mol

Q: What about the “folding stability dG unfold” value [3] of the same sequence?
A: 2.1 ± 0.05 kcal/mol

Q: For “SASISVASPEEAEKIAKELKEKYGAKSVKIEPLPEPLVKVTIEFEVPLENGKTATRKIVLLFSSDGKEESAG [r14_420_TrMRF]”, which “folding stability dG unfold” value [1] is on record?
A: 1.87 ± 0.044 kcal/mol

Q: What about the “folding stability dG unfold” value [2] of the same sequence?
A: 2.715 ± 0.016 kcal/mol

Q: What about the “folding stability dG unfold” value [3] of the same sequence?
A: 2.44 ± 0.074 kcal/mol

Q: For “SAGGSAGGSAGSPDRPRRVEPVPVVTYKDPDLGKEFTSPEEIEKTKEELEKKGLSVEVSASAGGSAGGSAGG [r17_289_JUSTAS]”, which “folding stability dG unfold” value [1] is on record?
A: -0.209 ± 0.13 kcal/mol

Q: What about the “folding stability dG unfold” value [2] of the same sequence?
A: 0.482 ± 0.1 kcal/mol

Q: And the “folding stability dG unfold” value [3]?
A: 0.289 ± 0.15 kcal/mol

Q: What does the source list for “SAKPIPLKNVTINMYKDEKGNYYFKVTLNDKFIGEFEFETTEEALEGAIELAKEIEKIYGPNNIKIKNESAG [r14_791_TrMRF]”?
A: folding stability dG unfold [1]: 2.33 ± 0.2 kcal/mol; folding stability dG unfold [2]: 2.7 ± 0.067 kcal/mol; folding stability dG unfold [3]: 2.64 ± 0.31 kcal/mol

Q: What does the source list for “SAGGSAGGSAGGIGDDGKVRVALLDKNGKVLGPVYVTKVEEGKIEVEAEPDYTLVLNLESAGGSAGGSAGGS [r10_1257_TrMRF]”?
A: folding stability dG unfold [1]: -0.0768 ± 0.11 kcal/mol; folding stability dG unfold [2]: 0.487 ± 0.12 kcal/mol; folding stability dG unfold [3]: 0.329 ± 0.15 kcal/mol

Q: With “SAGKKKKIKIKVTIVVPVKTKEDVELMKELAEKFAPELGKETAKKLGLPPEVEEIEVDVNILIVSPEELSAG [r5_436_TrMRF]” as the sequence, how does the “folding stability dG unfold” value [1] read?
A: 1.48 ± 0.14 kcal/mol

Q: What about the “folding stability dG unfold” value [2] of the same sequence?
A: 1.89 ± 0.13 kcal/mol

Q: And the “folding stability dG unfold” value [3]?
A: 1.88 ± 0.2 kcal/mol

Q: What does the source list for “SAGGSAGGSAGMTKIVIQYEVPPDKPPPDLEEIKKSLPGAENIEITREELPNGTWVYTVESAGGSAGGSAGG [r17_205_JUSTAS]”?
A: folding stability dG unfold [1]: 0.694 ± 0.19 kcal/mol; folding stability dG unfold [2]: 0.405 ± 0.3 kcal/mol; folding stability dG unfold [3]: 0.593 ± 0.26 kcal/mol

Q: What does the source list for “SMYDIVITVPSPEDVKALEEAFKELGVEEIEVERLPEERYRIVIKTKGSVEEIVEAIRKIAEENGLEIEPSA [r9_1003_TrMRF]”?
A: folding stability dG unfold [1]: 3.36 ± 0.18 kcal/mol; folding stability dG unfold [2]: 3.89 ± 0.19 kcal/mol; folding stability dG unfold [3]: 3.75 ± 0.19 kcal/mol

Q: With “SAGGSAGGSTVEEIADFFKQQGFTDAEINVMPPPNGRRYVTVRFEMKEPNGNKHKMNFSIWIPSAGGSAGGS [r12_246_TrROS]” as the sequence, how does the “folding stability dG unfold” value [1] read?
A: 2.53 ± 0.16 kcal/mol

Q: And the “folding stability dG unfold” value [2]?
A: 1.99 ± 0.16 kcal/mol

Q: And the “folding stability dG unfold” value [3]?
A: 2.31 ± 0.34 kcal/mol

Q: Which results are given for “SAGGSARVIRNPDYGMWIRLQPTDGGYTVQIEMYRPDPEDGKPKRRPMTHTIPPDDLPPEIRDLLKSAGGSA [r15_703_TrROS]”?
A: folding stability dG unfold [1]: 0.442 ± 0.1 kcal/mol; folding stability dG unfold [2]: 0.515 ± 0.12 kcal/mol; folding stability dG unfold [3]: 0.573 ± 0.07 kcal/mol

Q: Which results are given for “SAGGEFEVEELPPGGLLLVTFRAPADLPLEIPLEFTSPDGSPVEVAEYEREPFGDYVLITVLVRVPDSAGGS [r16_499_TrMRF]”?
A: folding stability dG unfold [1]: 2.25 ± 0.16 kcal/mol; folding stability dG unfold [2]: 2.77 ± 0.16 kcal/mol; folding stability dG unfold [3]: 2.73 ± 0.18 kcal/mol

Q: With “SMEPGERYRITATRKDGSRVEVEAIPGGVLRARVYLPNGELVGEAEFPVDRPVELLEALGLDELVSVEPESA [r9_1107_TrMRF]” as the sequence, how does the “folding stability dG unfold” value [1] read?
A: 2.17 ± 0.051 kcal/mol

Q: And the “folding stability dG unfold” value [2]?
A: 2.42 ± 0.043 kcal/mol

Q: And the “folding stability dG unfold” value [3]?
A: 2.32 ± 0.086 kcal/mol

Q: With “SAGGSAGGSAGGPRPLRRELRIRRRFRFRVLGLEEGEPRPREFEVEVELVLVETRGPGESAGGSAGGSAGGS [r10_118_TrMRF]” as the sequence, how does the “folding stability dG unfold” value [1] read?
A: 2.65 ± 0.082 kcal/mol

Q: What about the “folding stability dG unfold” value [2] of the same sequence?
A: 4.31 ± 0.093 kcal/mol

Q: What about the “folding stability dG unfold” value [3] of the same sequence?
A: 3.84 ± 0.21 kcal/mol

Q: For “SAGGSAGGAKPPKTVTVKVEVTNADGETQTRTVTLTNLPKDLKPGDTVTLPETGQTARIVEITPSAGGSAGG [r6_560_TrROS_Hall]”, which “folding stability dG unfold” value [1] is on record?
A: 3.27 ± 0.078 kcal/mol

Q: What about the “folding stability dG unfold” value [2] of the same sequence?
A: 3.02 ± 0.097 kcal/mol

Q: What about the “folding stability dG unfold” value [3] of the same sequence?
A: 3.17 ± 0.1 kcal/mol

Q: For “SAGGMTTVTTTFTMSSEELKKFLEEKFGREVTKEEIIELIPKEKKIDVSESPQPNGTVKYTITITIEKSAGG [r13_869_JUSTAS]”, which “folding stability dG unfold” value [1] is on record?
A: 1.99 ± 0.099 kcal/mol

Q: And the “folding stability dG unfold” value [2]?
A: 2.61 ± 0.044 kcal/mol

Q: What about the “folding stability dG unfold” value [3] of the same sequence?
A: 2.44 ± 0.16 kcal/mol

Q: Which results are given for “SAGGKKPKKLTPEQIEELAKALAPEGAEVKVEVVEVTEKTVVVKITVKDKETGEEKTIEITLPLPEESAGGS [r16_486_TrROS_Hall]”?
A: folding stability dG unfold [1]: 2.45 ± 0.18 kcal/mol; folding stability dG unfold [2]: 1.73 ± 0.14 kcal/mol; folding stability dG unfold [3]: 2.24 ± 0.22 kcal/mol

Q: For “SLEEKIKEAIENSPPNSEVIVPLPDDRTVKITVTPETVTGDGRRRLRIKVTITIYDPSGTKLGEKVLEIPLS [r1_386_JUSTAS]”, which “folding stability dG unfold” value [1] is on record?
A: 2.66 ± 0.052 kcal/mol

Q: And the “folding stability dG unfold” value [2]?
A: 4.12 ± 0.17 kcal/mol

Q: And the “folding stability dG unfold” value [3]?
A: 3.69 ± 0.16 kcal/mol

Q: What does the source list for “SAGGSAGGTLKELIDNITRVDPENGKQRMRIPGGAEIEINPEEGQIKIRYYHPGKPQEITLPLPSAGGSAGG [r6_793_TrROS]”?
A: folding stability dG unfold [1]: 0.46 ± 0.25 kcal/mol; folding stability dG unfold [2]: 0.776 ± 0.24 kcal/mol; folding stability dG unfold [3]: 0.651 ± 0.31 kcal/mol

Q: Which results are given for “SAGGSAGGSAGGSKDITITHEHNPNGWYRVKIRFPDNGKKIEIWVPAGRSVEEALDWLFSAGGSAGGSAGGS [r4_393_TrROS]”?
A: folding stability dG unfold [1]: 3.06 ± 0.12 kcal/mol; folding stability dG unfold [2]: 3.2 ± 0.038 kcal/mol; folding stability dG unfold [3]: 3.25 ± 0.12 kcal/mol

Q: For “SAGGSAGGSAGMEPIRVTVTTQDTATGTTTTTTVTVPTDVPVEAVLAALDPALVTAVTVESAGGSAGGSAGG [r11_386_JUSTAS]”, which “folding stability dG unfold” value [1] is on record?
A: 1.68 ± 0.061 kcal/mol

Q: And the “folding stability dG unfold” value [2]?
A: -0.172 ± 0.072 kcal/mol

Q: What about the “folding stability dG unfold” value [3] of the same sequence?
A: 0.808 ± 0.11 kcal/mol

Q: With “SAGGSAGGSKVLIIEPEENKELAEKIAKELKEKGELGEVEIKTFSSPEEAKEYAKNYDIVITGSAGGSAGGS [r12_679_TrMRF]” as the sequence, how does the “folding stability dG unfold” value [1] read?
A: -0.0715 ± 0.22 kcal/mol

Q: What about the “folding stability dG unfold” value [2] of the same sequence?
A: 0.528 ± 0.17 kcal/mol

Q: What about the “folding stability dG unfold” value [3] of the same sequence?
A: 0.302 ± 0.14 kcal/mol

Q: What does the source list for “SAGGMIKVEVEPLEDGVLRVRVYVPHPDGPPIEIEVVFPPEVGSLEEALEKAVEVVEEFLKKHNIPLSAGGS [r8_464_TrMRF]”?
A: folding stability dG unfold [1]: 2.25 ± 0.082 kcal/mol; folding stability dG unfold [2]: 2.22 ± 0.065 kcal/mol; folding stability dG unfold [3]: 2.36 ± 0.1 kcal/mol

Q: With “SAGGSAGGSAGKKKIKLLIFDKKTNKLYVVEVELTKDGKIKITKIKEIYEVKPGEKLKLLSAGGSAGGSAGG [r11_750_TrROS_Hall]” as the sequence, how does the “folding stability dG unfold” value [1] read?
A: 0.981 ± 0.044 kcal/mol

Q: What about the “folding stability dG unfold” value [2] of the same sequence?
A: 1.3 ± 0.26 kcal/mol

Q: And the “folding stability dG unfold” value [3]?
A: 1.19 ± 0.25 kcal/mol

Q: With “SAGGGSVTVSLEGNTTYVRISREDGPERTYTFPQPNGEPLTFTEAPGRPGLITITRPATGEPVVLALSAGGS [r16_198_JUSTAS]” as the sequence, how does the “folding stability dG unfold” value [1] read?
A: 0.281 ± 0.18 kcal/mol

Q: And the “folding stability dG unfold” value [2]?
A: 0.0166 ± 0.31 kcal/mol

Q: And the “folding stability dG unfold” value [3]?
A: 0.219 ± 0.18 kcal/mol

Q: Which results are given for “SWWYIVTIKIWKPGNGEPKGPIMLFVRSPEEAEEIAEEPAPEHGYDVEVNVKRIPPDDMDDPEQMKEMMNSA [r9_864_TrROS]”?
A: folding stability dG unfold [1]: 1.82 ± 0.035 kcal/mol; folding stability dG unfold [2]: 2.56 ± 0.13 kcal/mol; folding stability dG unfold [3]: 2.07 ± 0.37 kcal/mol

Q: Which “folding stability dG unfold” value [1] does the source give for “SAGGSAGGSLHPSQPLLVTVEVEVDPETGTVRLRVSVWVPGPRERLLERELEVPLHSLPEGALSAGGSAGGS [r12_145_TrMRF]” here?
A: 1.69 ± 0.039 kcal/mol

Q: What about the “folding stability dG unfold” value [2] of the same sequence?
A: 2.49 ± 0.015 kcal/mol

Q: What about the “folding stability dG unfold” value [3] of the same sequence?
A: 2.25 ± 0.091 kcal/mol

Q: For “SAGGSAGGSMNVSPEELEALARERIEALLAENPDVPRDDVVLEFEGRSESPGKVITLTLRVRASAGGSAGGS [r12_707_JUSTAS]”, which “folding stability dG unfold” value [1] is on record?
A: 0.242 ± 0.14 kcal/mol

Q: And the “folding stability dG unfold” value [2]?
A: -0.00174 ± 0.23 kcal/mol

Q: What about the “folding stability dG unfold” value [3] of the same sequence?
A: 0.0895 ± 0.21 kcal/mol

Q: What does the source list for “SAGGSAGGPIVLKFPSPEDLEKAIEIATAHGYEIELNPESGTLVINATGPMLEEFKKIPGLEISSAGGSAGG [r6_724_TrMRF]”?
A: folding stability dG unfold [1]: 2.73 ± 0.12 kcal/mol; folding stability dG unfold [2]: 2.66 ± 0.041 kcal/mol; folding stability dG unfold [3]: 2.72 ± 0.092 kcal/mol
